# Assay: yeast display, Sf9 membrane polyspecificity reagent, FACS + sequencing; frameworks hold sequencing errors
# Outline: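 Sorting gates, low and high (top ~1%), were placed on anti-HA fluorescence to track expression and on streptavidin fluorescence to track reagent binding. A clone's polyreactivity label is taken from the gate it came out of. The reagent was 10% biotinylated, detergent-solubilized Sf9 membrane, applied for 1 hour at 4 °C to galactose-induced yeast display cells.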
row,Sequence,polyreactivity (PSR sort gate)
1,QVQLVESGGGLVQAGGSLRLSCAPSGSTIVRYAMGWYRQAPGKERELVAAISGSGGTTYYADSVKGRFTISRDNAKNTVYLQMNSLKPEDTAVYYCATRISAMDYWGQGTQVTVSS,high polyreactivity
2,QVHLVESGGGLVQAGGSLRLSCAASGRTFFWYVMGWYRQAPGKERELVATISYGGITYYADSVKGRFTISRDNAKNTVYLQMNSLKPEDTAVYYCAARRSLYYSTVKFDGYYYWGQGTQVTVSS,high polyreactivity
3,QVQLVESGGGLVQAGGSLRLSCAASGITFNYYAMGWYRQAPGKEREFVAAITRSGGRTYYADSVKGRFTISRDNAKNTVYLQMNSLKPEDTAVYYCAAGYYILYIWKFDYWGQGTQVTVSS,high polyreactivity
4,QVQLVESGGGLVQAGGTLRLSCAASGVIFKVYGMRWYRQAPGKERELVAAISWTTGGTYYADSVKGRFTISRDNAKNTVYLQMNSLKPEDTAVYYCNAPSWYYSGVRYDYWGQGTQVTVSS,high polyreactivity
5,QVQHVESGGGLVQAGGSLRLSCAASGLIFPRYAMGLYRQAPGKERELVAAINWRGGITYYADSVKGRFTISRDNAKNTVYLQMNSLKPEDTAVYYCAAAVKHVAYHYNYWGQGTQVTVSS,high polyreactivity
6,QVQLVESVGGLDQAGGSLRLSCPASGRTFGKYAMGWYRQSPGKERELVARISRRGGTTYYADSVKGRFTISRDNAKNTVYLQLNSLKPEDTAVYYCNARRRDYRHWYDYWGQGTQVTVSS,high polyreactivity
7,QVQLVESGGGLVQAGGSLSLSCAASGGTFYQYAMGWYRQAPGKERELVAAISTSGARTYYADSVKGRFTISRDNAKNTVYLQMNSLKTEDTAVYYCAADHIRGGLDYWGQGTQVTVSS,high polyreactivity
8,QGQLVESGGGLVQAGGSLRLSCAASGRTFGINAMGWYRQAPGKERELVAVISFGDGGTYYADSVKGRFTISRDNAKNTVYLQMNSLKPEDTAVYYCATDYQSTSVWGGHFVINPYDYWGQGTQVTVSS,low polyreactivity
9,QVQLVESGGGLVQAGGSLRLSCAASGITIYKYAMGWYRQAPGKERELVAAITRGGSTYYADSVKGRFTISRDNAKNSVYLQMNSLKPEDTAVYYCNKVYHWQTPGFGYGYWGQGTQVTVSS,high polyreactivity
10,QVQLVESGGGLVQAGGSLRLSCAASGFTFWLYAMGWYRQAPGKERELVAAIDWDGGTYYADSVKGRFTISRDNAKNTVYLQMNSLKPEDTAVYYCAARYRYYYTRYDYWGQGTQVTVSS,high polyreactivity
11,QVQLVESVGRLVQAGGSLRLSCAASGIIFSVNAMGWYRQAPGKERELVAAITYSGGSTYYADSVKGRFTISRDNAKNTVYLQMNSLKPEDTAVYYCATSYYSSGTWSEYYYWCQGTQVTVSS,high polyreactivity
12,QVQLVESGGGLVQAGGSLRLSCAASGTIFFFYVMGWYRQAPGKERELVAAITYSGGSTFYADSVKGRFTISRDNAKNTVYLQMNSLKPEDTAVYYCAAVYGQWTPLDPYNHWGQGTQVTVSS,low polyreactivity
13,QVQLVESGGGLVQAGGSLRLSCAASGSIFIGNTMGWYRQAPGKERELVATIRRSGSRTYYADSVKGRFTISRDNAKNTVYLQMNSLKPEDTAVYYCAADRLRNSGYKTIYDYWGQGTQVTVSS,low polyreactivity
14,QVQLVESGGGLVQAGASLRLSCAASGFIFRHYAMGWYRQAPGKARELVAVINWSGSSTYYADSVKGRFTISRDNAKNTVYLQMNSLKPEDTAVYYCAVRSLRVDKYGYWGQGTQVTVSS,high polyreactivity
15,QVQLVESGGGLVQAGGSLRLSCAASGLIFRRYAMGWYRQAPGKERELVAAISRTGGTTYYADSVKGRFTISRDNAKNTVYLQMNSLKPEDTAVYYCAAAGQGPDYDYWGQGTQVTVSS,high polyreactivity
16,QVQLVESGGGLVQAGGSLRLSCAASGSTFWWYAMGWYRQAPGKERELVAAISYSGSSTYYADSVKGRFTISRDNAKNTVYLQMNSLKPEDTAVYYCAADIQYYYNFYPGDYWGQGTQVTVSS,low polyreactivity
17,QVQLVESGGGLVQAGGSLRLSCAASGSTFGRYAMGWYRQAPGKERELVARISWGGGSTYYADSVKGRFTISRDNAKNTVYLQMNSLKPEDTAVYYCATRVYRSAVSYDYWGQGTQVTVSS,high polyreactivity
18,QVQLEESGVCLVQAGGSLRLSCAASGYIFISYARGWYREAPGKEREFVAAITGDGGSTYADSEKGRFTISRDNAKNTVYLLMNSLKPEDTAVYYCAVDGYGGEADYEFDHWGQGTQVNVSS,low polyreactivity
19,QVQLVESGGGLVQAGGSLRLSCAASGFTFDDYAMGWYRQAPGKERELVAAISWSGGSTYYADSVKGRFTISRDNAKNTVYLQMNSLKPEDTAVYYCAALRTGAQYSTMDYWGQGTQVTVSS,low polyreactivity
20,QVQLVESGGGLVQAGGSLRLSCAASGRTFGRYAMGWYRQAPGKERELVAAISWRGSSTSYADSVKGRFTISRDNAKNTVYLQMNSLKPEDTSVYYCNAKRSGGYGGYDYWGQGTQVTVSS,high polyreactivity
21,QVQLVESGGGLVQAGGSLRISCAASGSTSYNYVMGWYRQAPGKERELVAGITWSDDITYYADSVKGRFTISRDNAKNTVYLQMNSLKPEDTAVYYCAAEDRPLYWRFPDEMDYWGQGTQVTVSS,low polyreactivity
22,QVQLVESGGGLVQAGGSLRLSCAASGFTFRYYAMGWYRQAPGKEREFVAAIRSSGTTTSYADSVKGRFTISRDNAKNTVYLHMHSLKPEDTAVYYCAAGYFGPQQYYYWGQGTQVTVSS,high polyreactivity

row,Sequence,polyreactivity (PSR sort gate)
1,QVQLVESGGGLVQAGGSLRLSCAASGYTIIVNAMGWYRQAPGKERELVAAISWSSVSTYYADSVKGRFTISRDNAKNTVYLQMNSLKPEDTAVYYCAAEGYDYSQWFDYWGQGTQVTVSS,high polyreactivity
2,QVQLVETRGGLVQAGGSLRLTCAASGRTFEGYAMGWYRQAPGKEREFVAAITDGDSTYYADSVKGRFTISRDNAKNTVYLQMNSLKPEDTAVYYCAADRQTWYWYTAYLKYDYWGQGSQVTVSS,low polyreactivity
3,QVQLVESGGGLVQAGGSLRLSCAASGRTLRGNAMGWYRQAPGKERELVAVITRRGGSTYYADSVKGRFTISRDNAKNTFYLQMNSLKPEDTAVYYCAAVPYYYKYDYWGQGTQVTVSS,high polyreactivity
4,QVQLVQSGVGLDQAGGSLRLSCAASGSISSQNAMGWYRQAPGKESELVAAISWIGGSTYYADSVKGRFTISRDNAKNTVYLQMNSLKPEDTAVYYCAKDRASGFKYYYWGLGTQVTVSS,low polyreactivity
5,QVQLVESGGGLVQAGGSLRLSCAASGRTIIYYGMGWYRQAPGKERELVAAISLRGSSTRYADSVKGRFTISRDNAKNTVYLQMNSLKPEDTAVYYCAARPRLSRYDYWGQGTQVTVSS,high polyreactivity
6,QVQLVESGGGLVQAGGSLRLSCAASGRTFPANTMGWYRPAPGKERELVAAISSRGGSTYYADSVKGRFTISRDNAKKTVYLQMNSLKPEDTAVYYCNAYLYFPRYDYWGQGTQVTVSS,high polyreactivity
7,QVQLVESGGGLVQAGGSLRLSCAASGSTIYFYAMGWYRQAPGKERELVAAISGSGGRTYYADSVKGRFTISRDNAKNTVYLQMNSLKPEDTAVYYCAAEWYPYSDREFLYYYWGQGTQVTVSS,high polyreactivity
8,QVQLVESGGGLVQAGGSLRLSCAASGITFYTYAMGWYRQAPGKERELDAAITCSGGRTYYADSVKGRFTISRDNAKNSVYLQMNSLKPEDTAVYYCAALYVYRPRTPYGYWGQGTQVNVSS,high polyreactivity
9,QVQLVESGGGLVQAGGSLRISCAASGSIFGSYTMGWYRQAPGKERELVAVINWSGDRTYYADSVKGRFTISRDNAKNTVYLQMNSLKPEDTAVYYCAARERAGYSRIRYNYWGQGTQVTVSS,low polyreactivity
10,QVQLVESGGGLVQAGGSLRLSCAASGSIFYRYAMGWYRQAPGKERELVAAIRSRTGRTYYADSVKGRFTITRDNAKNTVYLQMNSLKQEDTAVYYCAADKYFSARFDYWGQGTQVTVSS,high polyreactivity
11,QVQLVESWGGLVQAGGSLRLSCAASGSNFYTYAMGWYRQAPGKERDFVAAITWSGGRTYYADSVKGRFTISRDNAKNSVYLQMNSLKPEDTAVYYCAATSWWATTGFDYWGQGTQVTVSS,low polyreactivity
12,QVQLVESGGGLVQAGGSLRLSCAASGFTFRVYAMGWYRQAPGKERELVAAISSGGSTNYADSVKGRFTISRDNAKNTVYLQMNSLKPEDTAVYYCAARQRYYSERPQYSGFYYWGQGTQVTVSS,high polyreactivity
13,QVQLVEAGGGLVQAGGSLRLSCAASGRISYTYAMGWYRQAPGNERELVAAITDGGSTTYADSVKGRFTISRDNAKNTVYLQMNSLKPEDTAVYYCNADTDSAKSPAYYYWGQGTQVTVSS,low polyreactivity
14,QVQLVESGGGLVQAGGSLRLSCAASGGIFAYYAMGWYRQAPGKERELVAAITSRGGRTYYADSVKGRFTISRDNAKNTVYLQMNSLKPEDTAVYYCAAEYINSNYQWYYYWGQGTQVTVSS,high polyreactivity
15,QVQLVDSGGGLVQAVGSLRLSCAASGRTLGAYAMGWYRQAPGKEREFVARITYGGRTFYADSVKGRFTISRDNAKNTVYLQMNSLKPEDTAVYYCATKLPYRWYDYWGQGTQVTVSS,high polyreactivity
16,QVQLVESGGGLVQAGGSLRLSCAASGSTLYTYAMGWYRQAPGKERELVATISWSGSSTYYADSVKGRFTISRDNAKNTVYLQMNSLKPEDTAVYYCNKVPGKSGVPPDYDYWGQGTQVTVSS,high polyreactivity
17,QVQLEESGGGLVQAGGSLRLTCAASGRNFTYYAMGWSIQAPGNEREIVAAISSSGGSTSYADSVKGRFTISRDNAKNTVYLQMNSLKPEDTAVYYCAAVTRDYGSRSGLDYWGQGTQVTVSS,high polyreactivity
18,QVQLVESGGGLVQAGGSLRLSCAASGRTYRQNAMGWYRQAPGKEGELVAAISSSGTNTHYADSVKGRFTISRDNAKNTVYLQMTSLKPEDTAVYYCAADSWGARRKQYHENGYWGQGSQVTVSS,high polyreactivity
19,QVQLVESGGGLVQAGGSLRLSCAASGRIFKYNAMGWYRQAPGKERELVAAISSSGGSTYYADSVKGRCTISRDNAKNTVYLQMNSLKPEDTAVYYCAARYNSRVYRYDYWGQGTQVTVSS,high polyreactivity
20,QVQLVESGGGLVQAGGSLRLSCAASGRIITRNAMGWYRPAPGKERELVAAISSGGSTSYADSVKGRFTISRDNAKNTVYLQLNSVKPEDTAVYYCATKWYWWYDGYYYWGQGTQVTVSS,low polyreactivity
21,QVQLVESWGGLVQAGGSLRLSCAASGRTFDGNAMGWYRQAPGKEGEFVATISTDGGSTHYADSVKGRFTISRDNAKNTVYLQMNSLKPEDTAVYYCAADTPWYDDNYDYWGQGTQVTVSS,low polyreactivity
